{"source": "paper PMC10743139", "about": "“Discovery and Engineering of a Novel Bacterial L-Aspartate α-Decarboxylase for Efficient Bioconversion” (Foods, 2023)", "key": {"N[C@@H](CC(=O)O)C(=O)O": {"test_system": "N[C@@H](CC(=O)O)C(=O)O", "assay": "HPLC of beta-alanine, Michaelis-Menten fit", "format": "biochemical, Corynebacterium jeikeium", "details": "sodium L-aspartate 1-100 mM, pH 7.0, 37 °C, 5 min", "text": "HPLC of beta-alanine, Michaelis-Menten fit on CjADC (CorJei), L-aspartate α-decarboxylase from Corynebacterium jeikeium"}, "purified protein": {"substrate": "N[C@@H](CC(=O)O)C(=O)O", "assay": "purified protein", "details": "sodium L-aspartate 1-100 mM, pH 7.0, 37 °C, 5 min"}}, "data": [{"molecule": "CjADC (CorJei), L-aspartate α-decarboxylase from Corynebacterium jeikeium (Corynebacterium jeikeium K411; I88M/Y90F)", "values": [{"measurement": "Km", "setting": "N[C@@H](CC(=O)O)C(=O)O", "value": "3.2 ± 0.4", "unit": "mM"}]}, {"molecule": "CjADC (CorJei), L-aspartate α-decarboxylase from Corynebacterium jeikeium (Corynebacterium jeikeium K411; C26V/I88M/Y90F)", "values": [{"measurement": "Km", "setting": "N[C@@H](CC(=O)O)C(=O)O", "value": "2.6 ± 0.6", "unit": "mM"}, {"measurement": "kcat", "setting": "N[C@@H](CC(=O)O)C(=O)O", "value": "171.5 ± 0.8", "unit": "s⁻¹"}, {"measurement": "kcat/Km", "setting": "N[C@@H](CC(=O)O)C(=O)O", "value": "61200 ± 1300", "unit": "M⁻¹ s⁻¹"}]}, {"molecule": "CjADC (CorJei), L-aspartate α-decarboxylase from Corynebacterium jeikeium (Corynebacterium jeikeium K411; C26V/Y90F)", "values": [{"measurement": "Km", "setting": "N[C@@H](CC(=O)O)C(=O)O", "value": "4.1 ± 0.3", "unit": "mM"}]}, {"molecule": "CjADC (CorJei), L-aspartate α-decarboxylase from Corynebacterium jeikeium (Corynebacterium jeikeium K411; C26V/I88M)", "values": [{"measurement": "Km", "setting": "N[C@@H](CC(=O)O)C(=O)O", "value": "3.6 ± 0.2", "unit": "mM"}]}, {"molecule": "CjADC (CorJei), L-aspartate α-decarboxylase from Corynebacterium jeikeium (Corynebacterium jeikeium K411; C26V/I88M/R3K/Y90F)", "values": [{"measurement": "Km", "setting": "N[C@@H](CC(=O)O)C(=O)O", "value": "2.2 ± 0.5", "unit": "mM"}, {"measurement": "kcat", "setting": "N[C@@H](CC(=O)O)C(=O)O", "value": "209.2 ± 0.8", "unit": "s⁻¹"}, {"measurement": "kcat/Km", "setting": "N[C@@H](CC(=O)O)C(=O)O", "value": "95100 ± 1600", "unit": "M⁻¹ s⁻¹"}]}, {"molecule": "CjADC (CorJei), L-aspartate α-decarboxylase from Corynebacterium jeikeium (Corynebacterium jeikeium K411; I88L/Y90F)", "values": [{"measurement": "Km", "setting": "N[C@@H](CC(=O)O)C(=O)O", "value": "3.9 ± 0.1", "unit": "mM"}, {"measurement": "kcat", "setting": "N[C@@H](CC(=O)O)C(=O)O", "value": "88.6 ± 2.8", "unit": "s⁻¹"}, {"measurement": "kcat/Km", "setting": "N[C@@H](CC(=O)O)C(=O)O", "value": "22700 ± 500", "unit": "M⁻¹ s⁻¹"}]}, {"molecule": "CjADC (CorJei), L-aspartate α-decarboxylase from Corynebacterium jeikeium (Corynebacterium jeikeium K411) (protein) chain 1: MLRTMLKSKIHRATVTQADLHYVG chain 2: SCTIDADLMEAADILEGEQIDIVDIDNGNRLTTYAITGDRGTGVIGINGAAARLISPGDLVIIIGYAQYSEEDLKNYASRVVFVDGNNKQVELGGDPAQVPDGSGLKNPRHPEA", "values": [{"measurement": "Km", "setting": "purified protein", "value": "3.6 ± 0.2", "unit": "mM"}]}, {"molecule": "BacThe, ADC from Bacteroides thetaiotaomicron (Bacteroides thetaiotaomicron VPI-5482) (protein) chain 1: MMIEVLKSKIHCARVTEANLNYMG chain 2: SITIDEDLLDAANMIPGEKVYIADNNNGERFETYIIKGERGSGKICLNGAAARKVQPDDIVIIMSYALMDFEEAKSFKPTVIFPDPATNSVVK", "values": [{"measurement": "Km", "setting": "purified protein", "value": "8.9 ± 0.4", "unit": "mM"}]}, {"molecule": "LisMon, ADC from Listeria Monocytogenes (Listeria monocytogenes EGD-e) (protein) chain 1: MFRTMMNGKIHRATVTEANLNYVG chain 2: SITIDSAILEAVDMLPNEKVQIVNNNNGARIETYIIPGEPGSGVICLNGAAARHVQVGDVVIIMSYGMFTDEEAKTHEPKIVVLDEKNHIEMILPEEKAHTTL", "values": [{"measurement": "Km", "setting": "purified protein", "value": "6.0 ± 0.2", "unit": "mM"}]}, {"molecule": "CorGlu, ADC from Corynebacterium glutamicum (Corynebacterium glutamicum ATCC 13032) (protein) chain 1: MLRTILGSKIHRATVTQADLDYVG chain 2: SVTIDADLVHAAGLIEGEKVAIVDITNGARLETYVIVGDAGTGNICINGAAAHLINPGDLVIIMSYLQATDAEAKAYEPKIVHVDADNRIVALGNDLAEALPGSGLLTSRSI", "values": [{"measurement": "Km", "setting": "purified protein", "value": "4.5 ± 0.1", "unit": "mM"}]}, {"molecule": "BsADC (BacSub), ADC from B. subtilis (Bacillus subtilis subsp. subtilis str. 168) (protein) chain 1: MYRTMMSGKLHRATVTEANLNYVG chain 2: SITIDEDLIDAVGMLPNEKVQIVNNNNGARLETYIIPGKRGSGVICLNGAAARLVQEGDKVIIISYKMMSDQEAASHEPKVAVLNDQNKIEQMLGNEPARTIL", "values": [{"measurement": "Km", "setting": "purified protein", "value": "4.2 ± 0.3", "unit": "mM"}]}]}
